These results are taken from article PMC7554688, “Blocking of the IL-33/ST2 Signaling Axis by a Single-Chain Antibody Variable Fragment (scFv) Specific to IL-33 with a Defined Epitope” (International Journal of Molecular Sciences, 2020).

Positions count from the first letter of the chain named.

For experiment [1], the target named is T1, ST2-Fc fusion protein (ectodomain of ST2, residues 19-321, and Fc from human IgG) (UniProt Q01638 19-321).
T1 construct: Suppressor of tumorigenicity 2 (ST2) / interleukin 1 receptor-like 1 (IL1RL1), ectodomain, residues 19-321; Synthesised gene in the pSF vector; also called sST2; IL1RL1; source: Expi293F, transfected, purified from supernatant (protein A agarose)
T1 sequence (looked up): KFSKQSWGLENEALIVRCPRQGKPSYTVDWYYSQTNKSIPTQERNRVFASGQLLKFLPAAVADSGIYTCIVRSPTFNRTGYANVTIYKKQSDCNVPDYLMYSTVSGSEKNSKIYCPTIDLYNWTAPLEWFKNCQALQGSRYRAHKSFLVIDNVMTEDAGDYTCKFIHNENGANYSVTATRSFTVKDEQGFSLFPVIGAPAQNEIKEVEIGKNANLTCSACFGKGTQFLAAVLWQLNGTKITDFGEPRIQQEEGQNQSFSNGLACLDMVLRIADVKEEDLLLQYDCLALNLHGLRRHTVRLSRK
Briefly: pull-down; 4 uM GST-IL-33 on Glutathione Sepharose 4B, then 4 uM ST2-Fc, then C2_2E12 (0.4, 4, 40, 400 uM), 30 min at 4 C each step; 50 mM Tris-HCl pH 7.5, 150 mM NaCl; immunoblot (anti-ST2, anti-GST, anti-His6), bands quantified with ImageJ. To be noted: both partners purified.

The target of experiment [2] is T2, GST-IL-33 (mature form of interleukin 33, residues 112-270) (human, UniProt O95760).
T2 construct: Interleukin-33, human, mature form / IL-1-like cytokine domain, residues 112-270; Synthesised gene in the parallel GST-2 vector; also called GST-IL-33 WT; GST-IL-33_(112)-270; source: E. coli BL21 (DE3), purified (Glutathione Sepharose 4B); not shown: GST, N-terminal, kept
Briefly: ELISA; E. coli cell lysates containing overexpressed His6-tagged scFvs against GST-IL-33; the text says ELISA, the legend 'kinetic analysis'; the methods tell of lysates only for BLI (BLItz; lysate scFv on Ni-NTA biosensors, GST-IL-33 at 2, 1, 0.5 and 0.25 uM, Kd = koff/kon). To be noted: one partner purified.

Experiment [3] deals with T2, GST-IL-33 (mature form of interleukin …). Briefly: ELISA; GST-IL-33 coated on the plate; serial dilutions of purified scFv (about 8 ng/mL to 0.8 mg/mL), ambient temperature 1 h, PBST; anti-HA-HRP detection, OD450; repeated three times. To be noted: both partners purified.
The target is the same in experiment [4]. Briefly: pull-down; 4 uM GST-IL-33 on Glutathione Sepharose 4B, then 4 uM ST2-Fc, then C2_2E12 (0.4, 4, 40, 400 uM), 30 min at 4 C each step; 50 mM Tris-HCl pH 7.5, 150 mM NaCl; immunoblot (anti-ST2, anti-GST, anti-His6), bands quantified with ImageJ. To be noted: both partners purified.

B1: GST-IL-33 (mature form of interleukin 33, residues 112-270) (domain or fragment, human, UniProt O95760 112-270, looked up)
chain: SITGISPITEYLASLSTYNDQSITFALEDESYEIYVEDLKKDEKKDKVLLSYYESQHPSNESGDGVDGKMLMVTLSPTKDFWLHANNKEHSVELHKCEKPLPDQAFFVLHNMHSNCVSFECKTDPGVFIGVKDNHLALIKVDSSENLCTENILFKLSET
notes: Interleukin-33, human, mature form / IL-1-like cytokine domain, residues 112-270; Synthesised gene in the parallel GST-2 vector; also called GST-IL-33 WT; GST-IL-33_(112)-270; source: E. coli BL21 (DE3), purified (Glutathione Sepharose 4B); not shown: GST, N-terminal, kept
With B1, in experiment [1], the binding result is on record as “binds”.

B2: C2_2E1 (scFv, V domains shown)
VH: EVQLLESGGGLVQPGGSLRLSCAASGFTFSSYYMSWVRQAPGRGLEWVSAISPGSSNKYYADSVKGRFTISRDNSKNTLYLQMNSLRAEDTAVYYCARMTSSFDYWGQGTLVTVSS
VL: QSVLTQPPSASGTPGQRVTISCSGSSSNIGNNDVSWYQQLPGTAPKLLIYSDSQRPSGVPDRFSGSKSGTSASLAISGLRSEDEADYYCGSWDYSLSAYVFGGGTKLTVL
notes: selected from a synthetic human scFv library by phage display; also called anti-IL-33 scFv clone C2_2E1; source: E. coli BL21 (DE3), in cell lysate; purified (Ni-NTA, SEC)
For the molecule B2, the affinity in experiment [2], expressed as Kd, was 35 nM.

B3: C2_2A10 (scFv, V domains shown)
VH: B2 VH with R43K, R87G, R98K, M99L, T100L, S101T, S102G
VL: B2 VL with D33A, S51D, S53N, Q54H, S91T, Y94S
notes: selected from a synthetic human scFv library by phage display; also called anti-IL-33 scFv clone C2_2A10; source: E. coli BL21 (DE3), in cell lysate; purified (Ni-NTA, SEC)
Consider B3, for which the Kd in experiment [2] came to 57 nM.

B4: C2_2E12 (scFv, V domains shown)
VH: B2 VH with R43K, M99L, S101L, L111P
VL: B2 VL with N31S, S51A, Q54K, G90A, Y94S
notes: selected from a synthetic human scFv library by phage display; Fab and IgG formats were made but no result is told for them; also called anti-IL-33 scFv clone C2_2E12; C2_2E12 antibody; source: E. coli BL21 (DE3), in cell lysate and purified (Ni-NTA, SEC); scFv also expressed in Expi293F, purified (Ni-NTA, SEC)
Turning to B4, the Kd in experiment [3] came to 38 nM; in experiment [2], 28 nM. In addition, in experiment [4], the “IL-33:ST2 interaction left at 100-fold molar excess of C2_2E12 (ST2-Fc band relative to that with 0.4 uM C2_2E12)” value is around 40%.

B5: C1_1E1 (scFv, V domains shown)
VH: B2 VH with R43K, R98K, M99L, S102A
VL: B2 VL with S23T, N31S, S35T, S53N, Q54K, D83E, S91A, Y94S, A98G
notes: selected from a synthetic human scFv library by phage display; also called anti-IL-33 scFv clone C1_1E1; source: E. coli BL21 (DE3), in cell lysate; purified (Ni-NTA, SEC)
In experiment [2], B5 registered a Kd of 48 nM.

B6: C2_2H5 (scFv, V domains shown)
VH: B2 VH with R43K, R67Q, R98K, M99L, T100S, S101Q
VL: B2 VL with S23T, D33G, V34I, S51D, D52N, Q54H, A85T, G90A, Y94S, A98G
notes: selected from a synthetic human scFv library by phage display; also called anti-IL-33 scFv clone C2_2H5; source: E. coli BL21 (DE3), in cell lysate; purified (Ni-NTA, SEC)
In the case of B6, the Kd in experiment [2] was found to be 31 nM. This Kd lies about 1.5-fold lower than the previous one.

B7: C2_1D5 (scFv, V domains shown)
VH: B2 VH with R43K, M99L, T100L, S102A
VL: B2 VL with N31S, Q54N, S91A, Y94S, A98G
notes: selected from a synthetic human scFv library by phage display; also called anti-IL-33 scFv clone C2_1D5; source: E. coli BL21 (DE3), in cell lysate; purified (Ni-NTA, SEC)
In turn, B7 returned a Kd in experiment [2] of 36 nM. This Kd and that of the molecule before are within 1.5-fold of each other.
